The DeepSol protein solubility set

test: soluble on expression in E. coli; label from the status in PepcDB or PDB records

Sequence | soluble on expression in E. coli
MGSDKIHHHHHHMDDHGRSRPTQPTLYVLDTNVLIHDPNALLNFQEHRVAIPMTVLEELDKLKTGKHTIAAECRQAIRLIDQVLGEATPEQVEGGVPIQRGKNGPSGSLSILMSKRAEPITWLPEHLNDNKIINQLVELKSRHSGVRVVLVTKDINMRLKARACGVDAEDYHTDQLIDDVALLSRGYHSLAGSFWDRVSKVETRQDHGRTWHRVQLTDNLPAVHINEFIVDEQGFVGWIKGIQQDELTILDLHQEPLLHQEAWGLRPRDVYQSLALYALLDPDIHLVNLSGAAGSGKTILALAAAIEQTMVSKRYRRIIATRSVQGLDEDIGFLPGTEAEKMEPWLGAITDNLEALHMDDECTHGSVDYILSKVPLQFKSLNYIRGRSFQQSLILIDECQNLTPHQMKTIITRAGSGSKVICLGNLAQIDTPYLSATSSGLTYLTERFKDFPHGVHVTLQGVPRSVLAEYAEAHM | not soluble
MVDIPPPFDLACITKKPITKSSPSLLIESDSPDKYKKKKSSFKRFLALTFKKKTENKLHVDVNVSSSRSSSESSYHGPSRILEVDRRSLSNSPQLKSRTGKLRASESPSSLIFYRDGKRKGVPFSRTVSRVESFEDRSRPPFLPLPLTKPRSISFPSADTSDYENIPAMNSDYENIQIPPRRPARAGAFTKLFEDQSRALSTANENDGYVDMSSFNAFESKQQSADQDAESAYTEPYKVCPISSAAPKEDLTSDEEQRSSEEEDSASRDPSVTHKVEGQSRALVIAQELLSSEKAYVEMLQHLNLDFHGAVMRALDDMDHEGRDTLAREELRQGLSELPAIHDLHQGILEELEERLSNWESQQKVADVFLAREQGFDHHATHILQFDRYLGLLSENCLHSPRLAAAVREFEQSVQGGSQTAKHRLLRVVQRLFQYQVLLTDYLNNLCPDSAEYDNTQGALSLISKVTDRANDSMEQGENLQKLVHIEHSVRGQGDLLQPGREFLKEGTLMKVTGKNRRPRHLFLMNDVLLYTYPQKDGKYRLKNTLAVANMKVSRPVMEKVPYALKIETSESCLMLSASSCAERDEWYGCLSRALPEDYKAQALAAFHHSVEIRERLGVSLGERPPTLVPVTHVMMCMNCGCDFSLTLRRHHCHACGKIVCRNCSRNKYPLKYLKDRMAKVCDGCFGELKKRGRAVPGLMRERPVSMSFPLSSPRFSGSAFSSVFQSINPSTFKKQKKVPSALTEVAASGEGSAISGYLSRCKRGKRHWKELWFVIKGKVLYTYMASEDKVALESMPLLGFTIAPEKEEGSSEVGPIFHLYHKKTLFYSFKAEDTNSAQRWIEAMEDASVL | soluble
MGSDKIHHHHHHMSEQKEDLFKPVGEAAAEVEDESIAEQNKANDGVKLTGAQDAMGHPVQEIESLCMNCGKNGTTRLLLTSIPYFREIIIMSFDCPHCGFKNCEIQPASQIQEKGSRYVLKVECREDFNRQVIKSETATCKFVELDIEIPAKRGQLTTVEGLLSEMIDDLSQDQEMRKSIDEALYKKIDDFIQKVKSYINCEPNTIPITFILDDPAGNSWIEYKPGEPQHKWSHTQYVRTDEQNVQVGIITRDQLEQRRQEQLKQLANRERNPSESVKVGSANPQFLSDATDIENFNNEVQTFRASCPSCTQECETHMKPVNIPHFKEVIIMSTVCDHCGYKSNEVKTGGAIPDKGRRITLYCDDAADLSRDILKSETCSMVIPELHLDIQEGTLGGRFTTLEGLLRQVYEELESRIFTQTSDSMDEATKARWVEFFAKLKEAIAGKVKFTVIMEDPLAGSYIQNVYAPDPDPNMTIEDYERTKEQNEDLGLSDIKVE | not soluble
RNDTECDLCGGDPEKKCHSCSCRVCGGKHEPNMQLLCDECNVAYHIYCLNPPLDKVPEEEYWYCPSCKTD | soluble
MHHHHHHSSGVDLGTENLYFQSNAMSSKIFCKSWGAEYIAADVVRFRLWATGQQKVMLRLAGKDQEMQANGDGWFTLDVAGVTPGTEYNFVLSDGMVVPDPASRAQKTDVNGPSYVVDPGSYTWRNTGWKGSRWEQAVVYEMHTGTFTPEGTFRAAIAKLPYLAELGVTVIEVMPVAQFGGERGWGYDGVLLYAPHSAYGTPDDFKAFIDAAHGYGLSVVLDIVLNHFGPEGNYLPLLAPAFFHKERMTPWGNGIAYDVDAVRRYIIEAPLYWLTEYHLDGLRFDAIDQIEDSSARHVLVEIAQRIREDITDRPIHLTTEDSRNIISLHPRDQDGNAPLFTAEWNDDFHNAVHVFATGETQAYYNDFADAPEKHLARALAEGFAYQGEISPQTGEPRGVKSTGQPPVAFVDFIQNHDQVGNRAQGDRLITLAGAERTKVLLATLLLSPHIPLLFMGEEYGESRPFLFFTDFHGDLARAVREGRAKEFADHAGENVPDPNAPETFQRSKLNWKQQHSEEGKAWLAFTRELLLLRQKHIVPLLSAARESSGTVLQTAPGFIAVSWRFPGGTLSLALNISATTVLLPDLPGKTLFAWPNESTGSLSQHSLIVRLAQGESAS | soluble
GSSGSSGMQLEIQVALNFIISYLYNKLPRRRVNIFGEELERLLKKKYEGHWYPEKPYKGSGFRCIHIGEKVDPVIEQASKESGLDIDDVRGNLPQDLSVWIDPFEVSYQIGEKGPVKVLYVDDNSGPSSG | soluble
MDVLSLLRVFGRRRRGLRDLEVSEPEFGDRPEYLEEYVRRFTSETGREEPELVEKIPSSMKNAREFNVIYPVGFGIFIHAYNDPLSESGYNKYVVVEPPRPPEDLVRLIDYKIALVLSEEDAPRSSEEKKRILLAALDKVVAVTSSERIAGGNGGNGSWQYAVKRGRIVIPERYYNYLKYHFIREKVGVGPLEPFLRDPYLEDISCNGVGPVYVVHKMFRSLESSVRFETEGELDDFILKLGEKIGKPISHARPVVDATLPDGSRINIVFGSDVSLKGSNFTIRKVSKIPISVTQLIKWGTFDARIAAYMWMMLEEGMSVFICGETASGKTTSLNAISVFIRPDAKIVTIEDTAEVVLPHPNWTRELTRNTGKPETSVTMFDLLRAALRQRPNYIIVGEIRGAEGNIAFQAMQTGHPVMATFHAANLSRLLQRLTNHPINVPKTNIDSLNIAWFQSAVHVKGFPARRVLEIDEIIGYDPSSGAIAAVPSFTWDPVRDKFIFSGRGASYLLEEKIATMKGIPRRELSIIYEELELRRRFLQTLVDKNILDYFDVYKAIVRAYNIGVEEALKRLERDELLS | soluble
METKYAFARQIIKEAGLFIKSKMSEQLDIQVKTQFDDLVTNVDQETQQLLMDRIHQTYPCDAILAEENDVRHPINQGNVWVIDPIDGTVNFIVQGSQFAVMIAYYEQGIGQFGLIYDVMADQLLAGGGDFEVTLNGDKLPAYQEKPLERSLIGCNAGMFARNDRNLAHLIAKTLGVRVYGGAGICMVKVMKQELLAYFSFIQPWDYAAAKVLGDKLGYVLLTIDGYEPDFQTRQKIMFVPKCQLTRIASFLTKDSAITLEDQ | not soluble
MGQNDLVKTLRMNYLFDFYQSLLTNKQRNYLELFYLEDYSLSEIADTFNVSRQAVYDNIRRTGDLVEDYEKKLELYQKFEQRREIYDEMKQHLSNPEQIQRYIQQLEDLE | not soluble
MDSDEEILSSYSSLTVTSRNETTISTRDSASNAMPVVVVDDEIFEDASSDISILTKRQESSSIHLDRSKMRKAVHQDLCTHDQKILEPLFLRKCEPHRVRQGTAPPNVIPIQKVENVEANKKFTGHSALLVSLNTPTYCVRYLAANAVHTPKNVLIFASPLSYVRFVARPDPQRTNQSVFEDPSETVRLMMAPDVAKVAQKMLPKWQTVTFTLAFGKHVAVKYRIIEVRKQPVTYVKAKADRVKRVSTSTLYRTEPVQRVDYWRSFKSNELKLSTVEKNDPQIVKRVFLEQQSLNWDPSGVIGTEKEHHHKTIVKSKKIKTGEELNLMWQRTDFH | not soluble
MTHLGGKVRSSGFLIPGSAPVSGTPPQGQGGLASSRVYEDSGGSLLSFSPMIHPNLAPLIAPSAYARLNLLNHCIFLEAFKEENSGQGLGGVQREVLFLKRDIIKQVIARIVAADSTLDLVNHGEPGREAPRRAQ | not soluble
MGHHHHHHSHMSCTIEKILTDAKTLLERLREHDAAAESLVDQSAALHRRVAAMREAGTALPDQYQEDASDMKDMSKYKPHILLSQENTQIRDLQQENRELWISLEEHQDALELIMSKYRKQMLQLMVAKKAVDAEPVLKAHQSHSAEIESQIDRICEMGEVMRKAVQVDDDQFCKIQEILAQLELENKELRELLSISSESHQARKENSMDTASQAIK | not soluble
MDFPCLWLGLLLPLVAALDFNYHRQEGMEAFLKTVAQNYSSVTHLHSIGKSVKGRNLWVLVVGRFPKEHRIGIPEFKYVANMHGDETVGRELLLHLIDYLVTSDGKDPEITNLINSTRIHIMPSMNPDGFEAVKKPDCYYSIGRENYNQYDLNRNFPDAFEYNNVSRQPETVAVMKWLKTETFVLSANLHGGALVASYPFDNGVQATGALYSRSLTPDDDVFQYLAHTYASRNPNMKKGDECKNKMNFPNGVTNGYSWYPLQGGMQDYNYIWAQCFEITLELSCCKYPREEKLPSFWNNNKASLIEYIKQVHLGVKGQVFDQNGNPLPNVIVEVQDRKHICPYRTNKYGEYYLLLLPGSYIINVTVPGHDPHITKVIIPEKSQNFSALKKDILLPFQGQLDSIPVSNPSCPMIPLYRNLPDHSAATKPSLFLFLVSLLHIFFK | soluble
MTDVLPTIELFDGIAEELDNVSLRRDRQSGTRNVLLRFRALKALDRFNSFRSRFSKAIRLTDSEGAIELWPDSSKLVFGGDDGDELDRVEFVVPIDNEDHWQRFMRFMERYAAANDMTYGDRQALEHHHHHH | soluble
MVFRKYRAVKQWGKMDTRIFKEIYNSRNKRKMPAFEVPDAVKALGVPVFEPNEIFQLSNRKNLVEQAAKEHMENELKFTEPPQQHPLQKSHPAYIFEAAEPMSDGIAQAAVLTRSVVATGGLPDTILLNSAAKLEIDEEMVKDAILHGERYNPSLEKLPARFDPVMFWIRHPRLHGTPVIKKNNIILNNLLRHVVLGGLRTQALKQNFQFSTKILQKNSNFLWKIQKNLIFSDFRLKLKNFCRVNRDSPLSVYVSGGQYFSKNALVLRAQPHLTVQSADSTVTMPWAGPIDVKAVWRIFTKMFSFSSFSYQNSSIFHQKLSKIFSAEPLPDIYPISPVIDFSMDTIYNDDVLLTRRSQQQKTHIHSILWSREQDQKYPWTSEQNMANAILTTYAAAVAEATRNGATTELEKPLLVRGVQLVNGRLDLVAMQLNTLKPTSEAGNNDEKNIVWIEKGLRLYKPTPYYEQMDTVEKLDMTVFHKFVALMLGFGAPHAH | not soluble
MGHHHHHHSHVAEGQEPAEFWDLLGGKTPYANDKRLQQEILDVQSRLFECSNKTGQFVVTEITDFTQDDLNPTDVMLLDTWDQVFLWIGAEANATEKESALATAQQYLHTHPSGRDPDTPILIIKQGFEPPIFTGWFLAWDPNIWSAGKTYEQLKEELGDAAAIMRITADMKNATLSLNSNDSEPKYYPIAVLLKNQNQELPEDV | soluble
MGHHHHHHSHMLGSWPARTFHPGACVSRRPSAPWKHTASGKDSPDLRFSEHGVSQEFWAGGLVAVLEMTPSPSPWGTQEDPAGMCSLWVVGWCPCRGAGVRDLVLVHAGVWCKHVCAVQRDACGESRTPAPPRKGGAVTSVLCLFLIKTFPLFSYKFASCKQVHKDPPLVKSGFE | soluble
MSSVPQSKQELELAIHSVFPKLMADYRSIPAQMSRVCSIDGNIQGTQISVCDTVAYLIGWGKLVLKWYELTSQTLPVDFPDTGYKWNQLELLADRFHQEYHQWQYSDLLNEYELTMAKLLTLIASLSVQQLYGIAWYDKWTLGRMIQFNTYSPMKNMRTKVRRFKKDNALKLEHHHHHH | not soluble
MKLKKLQIEPTTFCTLDCEYCHRKSIPPQDLPLEVLDRVNGVAKEYVIYGYGEPLLYPDFFKRIEGFDGKVVISTNGMLDSDILDLADKVGVSIDVNDKFRKGLEVEKALEVLRKLGERGIAEVVVTKDNLELLPAFFERIAEHGSGMLATNVVASNPAIYEQGVYFECSRITVEKVLGLDESILVEAIKDCSRGGGEALRRYKHLLKEVYSKGYSINLLAIFGRKGRVETAFKAEGVFEMLRDLAGDYGVELIEPSFFGDSKARECPYRDSAFLRVDGKISSCMSFAYTHTEYVDGHYKKVEKFCPGNVLKEDIDDVIGKMAEFERVRADMENFPWCADCPYVEGCWYAETNVDCYANLPSCSECLYSSGIAKCLLGD | not soluble
